Reference: patent US20180038859A1
Each block holds one molecule with its values, some of them ahead of it.

How the values were obtained:
Assay in all cases: cell-based or functional assay
[1] = biological target: hCCR2b (human) (UniProt P41597)
[2] = biological target: CXCR1 (human) (UniProt P25024)
[3] = biological target: hCCR2b (human), P41597
hCCR2b (human), P41597, sequence (P41597 whole entry): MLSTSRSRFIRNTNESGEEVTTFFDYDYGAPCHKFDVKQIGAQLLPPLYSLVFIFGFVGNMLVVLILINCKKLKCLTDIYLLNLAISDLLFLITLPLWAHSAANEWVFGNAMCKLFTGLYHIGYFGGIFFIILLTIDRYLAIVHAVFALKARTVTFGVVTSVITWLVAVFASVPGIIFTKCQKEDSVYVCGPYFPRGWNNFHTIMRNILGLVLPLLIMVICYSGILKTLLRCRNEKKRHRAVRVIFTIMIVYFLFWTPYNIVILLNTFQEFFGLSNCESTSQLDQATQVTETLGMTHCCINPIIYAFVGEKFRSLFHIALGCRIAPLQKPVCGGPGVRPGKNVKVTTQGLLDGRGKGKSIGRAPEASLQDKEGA

hCCR2b (human), sequence (P41597 whole entry): as above
CXCR1 (human), sequence (P25024 whole entry): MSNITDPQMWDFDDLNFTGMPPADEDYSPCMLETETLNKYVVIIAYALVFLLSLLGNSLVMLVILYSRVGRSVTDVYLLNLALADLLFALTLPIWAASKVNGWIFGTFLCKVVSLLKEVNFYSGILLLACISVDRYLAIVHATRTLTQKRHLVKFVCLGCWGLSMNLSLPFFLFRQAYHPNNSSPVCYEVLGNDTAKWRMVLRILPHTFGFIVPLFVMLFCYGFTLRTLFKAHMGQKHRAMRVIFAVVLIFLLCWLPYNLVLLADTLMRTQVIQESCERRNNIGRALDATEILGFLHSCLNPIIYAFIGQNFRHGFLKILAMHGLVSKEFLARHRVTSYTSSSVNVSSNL

Molecule: recombinant native MCP-1 (from UniProt P13500 24-99) (ligand)
- EC50, agonist activity in an Aequorin assay [1]: 3.1 nM

- EC50, agonist activity in an Aequorin assay [2]: 5.2 nM
Molecule: recombinant native IL-8 (from UniProt P10145 28-99) (ligand)

- EC50, activity (partial agonist) in an Aequorin assay [1]: 23.5 nM
Molecule: recombinant native MCP-2 (from UniProt P80075 24-99) (ligand)

- EC50, activity (partial agonist) in an Aequorin assay [3]: 50.9 nM
B1: biotinMCP-2 (CCL8), P80075 24-99 (ligand)
chain: QPDSVSIPITCCFNVINRKIPIQRLESYTRITNIQCPKEAVIFKTKRGKEVCADPKERWVRDSMKHLDQIFQNLKP
modifications: here or on the partner: pyroGlu at position 1 (replaces Gln1); Lys75 epsilon-amino PEG-Biotin; C-terminal amide
